Measured values as given in article PMC5433087.

The substances below were run against HER3 (Human, His-tagged; Sino Biological) (human) (UniProt P21860) (assay: SPR).
Sequence of UniProt P21860 (P21860 20-643): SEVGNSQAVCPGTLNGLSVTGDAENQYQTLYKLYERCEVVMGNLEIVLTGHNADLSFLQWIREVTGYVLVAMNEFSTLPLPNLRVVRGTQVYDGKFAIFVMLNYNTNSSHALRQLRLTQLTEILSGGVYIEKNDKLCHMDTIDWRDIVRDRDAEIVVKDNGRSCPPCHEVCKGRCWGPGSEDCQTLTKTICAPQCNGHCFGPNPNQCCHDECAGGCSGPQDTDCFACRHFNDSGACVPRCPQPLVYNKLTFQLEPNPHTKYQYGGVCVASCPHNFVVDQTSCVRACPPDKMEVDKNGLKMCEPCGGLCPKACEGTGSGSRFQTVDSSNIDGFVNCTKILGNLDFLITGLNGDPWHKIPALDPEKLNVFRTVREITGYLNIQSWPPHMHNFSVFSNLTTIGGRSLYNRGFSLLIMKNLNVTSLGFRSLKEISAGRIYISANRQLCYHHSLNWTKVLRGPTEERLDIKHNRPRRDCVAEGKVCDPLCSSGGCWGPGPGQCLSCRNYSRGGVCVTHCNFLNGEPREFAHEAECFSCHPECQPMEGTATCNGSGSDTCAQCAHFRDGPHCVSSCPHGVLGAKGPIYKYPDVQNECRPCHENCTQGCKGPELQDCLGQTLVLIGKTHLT

“bivalent HER3 affibody (two Z_(05413) domains joined by a spacer of three repeat units) (designed binder)” and “monovalent HER3 affibody (Z_(05413) affibody) (designed binder)” are within 1.5-fold of each other in Kd: 0.327 nM for the first, 0.316 nM for the second.

“trivalent HER3 affibody (three Z_(05413) domains joined by spacers of three repeat units) (designed binder)” was tested, and the Kd was 2.34 nM.
